From the supplement of paper PMC6755084

B1: F1*; the commonest letter at each place (parent)
chain: GAGACCGCAACTGAAAAGTTGTTATCACTTGTCGTAAGACACTTTGGATGGGTTGAAGTTCTGCACGTAGAAGCAAAAGGC

Variants of: B1
Test: fraction ligated after 30 min (ligated reads / total reads); higher = more ligase activity
Details: with F1*sub RNA substrate (template-directed ligation), 42 °C
Summary of the method: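 Ribozyme variants were transcribed with T7 from PCR-amplified oligo-pool templates and gel-purified. Ligated and unligated bands, separated on gel, were reverse transcribed with barcoded primers and sequenced on a MiSeq, with core bases filtered at quality ≥20. Fraction ligated per variant was computed as ligated reads divided by total reads.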

Variant | fraction ligated
A24T T29C | 0.6
C28T G31C | 0.828
A24G T45A | 0.22
T35C G38C | 0.815
A27T G31A | 0.848
C26T A37T | 0.853
A24G C42A | 0.796
A37C T44G | 0.859
C42G G47C | 0.64
T30A A48T | 0.671
G31T G47C | 0.0376
T23C A36C | 0.828
T29G G31T | 0.835
C42A G46T | 0.789
C42A G46C | 0.811
T32C G50T | 0.273
T32C G50C | 0.0903
C33G T44A | 0.812
C26G T49G | 0.371
G34A A39C | 0.8
T30C T49A | 0.575
T35G G38A | 0.847
C28G A39T | 0.755
G50A A56C | 0.0252

Variant | fraction ligated
T49G G55C | 0.136
T22C | 0.819
T32A T44A | 0.819
G31C C33T | 0.777
T32G G50A | 0.179
T32G G50C | 0.0952
C40A G47A | 0.769
G31A C33T | 0.829
G50C A56T | 0.0147
A36C T49A | 0.767
G47A A56C | 0.125
T29G A37G | 0.832
T29G A37T | 0.828
C42A A48G | 0.785
T23G A41T | 0.792
A27G T45G | 0.217
A24G G38T | 0.745
A24T T43C | 0.621
A27C A41T | 0.785
G31C T35G | 0.8
T29G T32C | 0.809
C28A T32A | 0.836
A36C A56C | 0.804
T29G T49G | 0.77

Variant | fraction ligated
T32A A39T | 0.827
T30A A39C | 0.777
T32C T49G | 0.647
T32C A56T | 0.766
C28T G55T | 0.765
T30G A57T | 0.828
G31T T35A | 0.797
A27G C42A | 0.827
G31C G55A | 0.809
G38A C42G | 0.837
A27T A57T | 0.804
C28A C33T | 0.829
A36T T44G | 0.847
T23C G38T | 0.803
A24T G31T | 0.0661
T25C G34C | 0.795
C33G A56T | 0.867
C33A A48C | 0.784
C33A A48T | 0.0887
A41T G55T | 0.81
G38T A56T | 0.826
T25G T35G | 0.804
T35A T49C | 0.768
C33T T43G | 0.78

Variant | fraction ligated
A37C A39G | 0.833
A37G C42G | 0.857
T30C C42T | 0.794
G38A G47T | 0.324
T23G T45C | 0.781
T45A A57T | 0.794
C26T T44G | 0.836
T35G G55T | 0.809
G38A A48C | 0.766
G47A T49G | 0.798
G47T G55A | 0.0777
G47T G55C | 0.0359
G47T G55T | 0.0451
C28T T35A | 0.802
C28T T35C | 0.789
T25G A37C | 0.757
T43G G50T | 0.561
T23G G55T | 0.826
T23G G55A | 0.832
A24T A39C | 0.636
A27G T30G | 0.846
A27G T30C | 0.811
C28A A41T | 0.827
C28A A41C | 0.794

Variant | fraction ligated
T32G T44C | 0.795
C40T A41G | 0.765
C26T T49G | 0.405
T43G T45G | 0.0141
T29G T30A | 0.823
T30G G47A | 0.654
A24C A39G | 0.774
A24C A39C | 0.131
T49G A57G | 0.734
G38A T44C | 0.818
A37T G47C | 0.178
A48C | 0.752
G52A | 0.827
T29A G46T | 0.793
C40T G47T | 0.197
T25A A57G | 0.345
C33A A36G | 0.824
T43C G50T | 0.441
T35G G50T | 0.795
C26A C28G | 0.395
C40A A57T | 0.792
T25G T49A | 0.723
T44G A48G | 0.787
T32A T43A | 0.831

Variant | fraction ligated
T23C C40A | 0.792
A41T T43A | 0.822
T29C A39C | 0.819
G31A T35G | 0.763
T45C T49A | 0.0409
C33T A48G | 0.814
T29G C42A | 0.813
C42A T49G | 0.789
A24T A41C | 0.184
C40G T44G | 0.807
T25A C33A | 0.189
G46T A57C | 0.726
A24G G34T | 0.729
T32G C40T | 0.836
T32C T43G | 0.729
G50A | 0.589
T30G C42G | 0.834
C28G A56T | 0.767
A41C A57T | 0.785
A37G A56G | 0.818
A36T A37C | 0.838
C42T A56G | 0.821
G38A T43G | 0.8
T30C G50C | 0.107

Variant | fraction ligated
T25C A56T | 0.107
C40G A56G | 0.766
T35A T45A | 0.797
T35A T45C | 0.788
C26G G31T | 0.0375
T23A T30A | 0.797
T29G A39T | 0.822
T23G G50T | 0.728
C33T C42G | 0.857
C28T A36G | 0.81
C26G G55C | 0.00657
A24C G55C | 0.158
T25A T32G | 0.13
C28T C42A | 0.805
C26T T35A | 0.854
A27T A41G | 0.776
T25C T49C | 0.757
A37G A39T | 0.796
A27C G46T | 0.78
G34T T49A | 0.756
G34T T49G | 0.772
G31C A37C | 0.769
T44A G55T | 0.829
